Experimental data as given in paper PMC3461516 (The Journal of Cell Biology, 2012).

Target: His6-Mad2 (recombinant human Mad2) (human, UniProt Q13257 1-205)
Experiment: pull-down

His6-Mad2 (recombinant human Mad2), sequence (Q13257 whole entry): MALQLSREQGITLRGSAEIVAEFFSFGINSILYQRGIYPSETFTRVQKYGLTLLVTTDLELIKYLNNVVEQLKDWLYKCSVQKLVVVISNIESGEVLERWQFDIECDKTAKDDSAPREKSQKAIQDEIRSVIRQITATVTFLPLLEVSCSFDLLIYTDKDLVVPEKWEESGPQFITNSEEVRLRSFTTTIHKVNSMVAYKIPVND

B1: GST-Cdc20^N151 (first 151 amino acids of human Cdc20), wild type (domain or fragment)
chain: MAQFAFESDLHSLLQLDAPIPNAPPARWQRKAKEAAGPAPSPMRAANRSHSAGRTPGRTPGKSSSKVQTTPSKPGGDRYIPHRSAAQMEVASFLLSKENQPENSQTPTKKEHQKAWALNLNGFDVEEAKILRLSGKPQNAPEGYQNRLKVL
binding result: binds
